In patent US12643954B2, “Anti-CD36 antibodies and their use to treat cancer” (ONA Therapeutics, S.L., priority 2020, dated 2026):

Experiments:
Type in all cases: in vivo
FaDu cells = test: FaDu orthotopic mouse model of oral cancer metastasis
Protocol: NOD scid gamma (NSG) (NOD.Cg-Prkdc^scidII2rg^tm1Wj1/SzJ) mice were purchased from Charles River and crossed in-house. All mice were housed under a regimen of 12h light/12h dark cycles and SPF conditions, and all procedures were evaluated and approved by the CEEA (Ethical Committee for Animal Experimentation) from the Government of Catalunya. SCC intra-tongue injection was performed as previously described (Oskarsson et al., 2014; Nieman et al., 2011). Briefly, mice were anesthetized by intraperitoneal injection with a mixture of 50 mg per kg of ketamine and 0.5 mg per kg of medetomidin, and SCC cells resuspended in 30 μl PBS were injected into each mouse tongue with a BD ultra-fine 6 mm needle. Mice were monitored for the luciferase bioluminescent signal immediately after injection (TO) and once weekly thereafter with a Xenogen IVIS Imaging System-100 (Caliper Life Sciences). Briefly, animals were injected by retro-orbital injection with 50 μl of D-luciferin (Promega) diluted in 1×PBS at 5 mg ml^−1. Continuous administration of isofluorane gas was provided to ensure anesthetizing animals during imaging. Data was quantified with the Living Image software version 4.4 (Caliper Life Sciences). Quantifications were calculated with unsaturated pixels. Color scale minimum and maximum values are shown in pictures.
Studies on the combination of the effects of the ONA-0-v1 anti-CD36 antibody, both with and without cisplatin, were performed in NSG mice (immuno-deficient). The studies included both male and female mice. All mice were inoculated with commercially available FaDu (ATCC) cancer cells, transduced with a retroviral vector expressing luciferase and the green fluorescent protein (Luc-GFP). FaDu cells were derived from a squamous cell carcinoma (i.e., from an oral cancer). Prior to inoculation, the FaDu cells were cultured in a humidified incubator at 37° C. with 5% CO2, and were grown in EMEM (LONZA) supplemented with 5 μg ml^−1 penicillin/streptomycin and 10% FBS (GIBCO).
For each mouse, 100,000 FaDu cells were inoculated via orthotopic injection.
Treatment of the inoculated mice began nine days after inoculation with the cancer cells. Inoculated mice were divided into four distinct treatment groups.
Antibody treatments were administered via intraperitoneal (i.p.) injection daily at a dose of 1 mg/kg. Cisplatin was administered twice weekly at a dose of 2 mg/kg (Groups 2 and 4). […] During the course of treatment, mice were observed once weekly using an in vivo imaging system (IVIS). Further, mouse body weight was measured twice weekly to update appropriate dosage amounts. At the end of the treatment period, the mice were sacrificed, and organs and tissues were collected for performance of immunohistochemistry analysis.

OVCAR-3 cells = test: OVCAR-3 orthotopic mouse model of ovarian cancer (Example 9)
Protocol: Studies of the effects of the ONA-0-v1 and 1G04 anti-CD36 antibodies on ovarian cancer were performed in NSG mice (immuno-deficient). The studies included only female mice. All mice were inoculated with commercially available OVCAR-3 (ATCC) cancer cells. OVCAR-3 cells were derived from a human progressive adenocarcinoma of the ovary (i.e., from an ovarian cancer). For each mouse, a piece of an OVCAR-3 xenograft was implanted orthotopically. Prior to inoculation, the OVCAR-3 cells were cultured in a humidified incubator at 37° C. with 5% CO2, and were grown in RPMI-1640 supplemented with 5 μg ml^−1 penicillin/streptomycin, 0.01 mg/ml bovine insulin and 20% FBS (GIBCO).
Treatment of the implanted mice began 7 days after implantation with the OVCAR-3 tumor pieces. Inoculated mice were divided into one of three treatment groups: vehicle injection control (n=9), ONA-0-v1 treatment (n=9), or 1G04 treatment (n=9). ONA-0-v1 antibody treatments were administered via intraperitoneal (i.p.) injection daily at a dose of 3 mg/kg. 1G04 antibody treatments were administered via i.p. injection TIW (three-times weekly) at a dose of 10 mg/kg. Control mice received an equal volume of vehicle daily. […] Mice were sacrificed at the end of the treatment period. Upon sacrifice, organs and tissues were collected for performance of necropsy and histopathology analysis.

HCT-116 cells = test: HCT-116 orthotopic mouse model of colon cancer (Example 8)
Protocol: Studies of the effects of the ONA-0-v1 anti-CD36 antibody on colon cancer were performed in BALB/c nude mice (immuno-deficient). The studies included only female mice. All mice were inoculated with commercially available HCT-116 (ATCC) cancer cells, transduced with a retroviral vector expressing luciferase. HCT-116 cells were derived from a human colorectal carcinoma (i.e., from a colon cancer). Prior to inoculation, the HCT-116 cells were cultured in a humidified incubator at 37° C. with 5% CO2, and were grown in McCoy's 5A medium supplemented with 5 μg ml^−1 penicillin/streptomycin and 10% FBS (GIBCO).
For each mouse, 2×10^6 HCT-116 cells were inoculated via orthotopic injection. Each mouse was imaged after inoculation and one week later and liver metastasis were confirmed by ex vivo luminescence prior to start of treatment. Treatment began 14 days after inoculation with the HCT-116 cells. Inoculated mice were divided into one of two treatment groups: vehicle injection control (n=10) or ONA-0-v1 treatment (n=10). Antibody treatments were administered via intraperitoneal (i.p.) injection daily at a dose of 3 mg/kg, while control mice received an equal volume of vehicle on the same schedule. At 7, 14, and 21 days after start of treatment, all mice were imaged via IVIS. Mice were sacrificed at the end of the treatment period (day 25). Upon sacrifice, organs and tissues were collected for performance of necropsy, ex-vivo IVIS, and histopathology.

[1] = antibody alone 1 mg/kg i.p. daily
[2] = antibody in combination with cisplatin

B1: ONA-0-v1: murine IgA anti-CD36 antibody; heavy chain SEQ ID NO: 5, light chain SEQ ID NO: 7 (antibody)
heavy: QVQLKQSGADLVRPGASVKLSCKASGYTFTDYYINWVKQRPGQGLEWIARIYPGSGNTYYNEKFKGKATLTAEKSSSTAYMQLSSLTSEDSAVYFCARGIGGGFGMDYWGQGTSVTVSSESARNPTIYPLTLPPVLCSDPVIIGCLIHDYFPFGTMNVTWGKSGKDITTVNFPPALASGGRYTMSSQLTLPAVECPEGESVKCSVQHDSNPVQELDVNCSPTPPPPITIPSCQPSLSLQRPALEDLLLGSDASITCTLNGLRNPEGAAFTWEPSTGKDAVQKKAAQNSCGCYSVSSVLPGCAERWNSGASFKCTVTHPESGTLTGTIAKVTVNTFPPQVHLLPPPSEELALNELLSLTCLVRAFNPKEVLVRWLHGNEELSPESYLVFEPLKEPGEGATTYLVTSVLRVSAETWKQGDQYSCMVGHEALPMNFTQKTIDRLSGKPTNVSVSVIMSEGDGICY
light: SIVMTQTPKFLLVSAGDRITITCKASQSVSDDVAWYQQKPGQSPKLLIYYASNRYTGVPDRFTGSGYGTDFTFTISTVQAEDLAVYFCQQDYSSPLTFGAGTKLEIKRADAAPTVSIFPPSSEQLTSGGASVVCFLNNFYPKDINVKWKIDGSERQNGVLNSWTDQDSKDSTYSMSSTLTLTKDEYERHNSYTCEATHKTSTSPIVKSFNRNEC
modifications: ONA-0-v1 heavy chain; ONA-0-v1 light chain
- tolerability over the course of treatment (FaDu cells; NSG mice): well-tolerated
- effect on mouse body weight relative to isotype control (FaDu cells; antibody alone): did not have any effects
- effect on platelet count relative to isotype control (FaDu cells; antibody alone): did not have any effects
- growth of lymph node metastases (IVIS relative intensity) (FaDu cells; [1]): able to inhibit growth
- inhibition of lymph node metastatic tumor growth relative to IgA isotype control (ratio of IVIS intensity end/start) (FaDu cells; [1]): greater than 50%
- effect on cisplatin-mediated weight loss and decrease in platelet count (FaDu cells; [2]): did not significantly enhance
- growth of lymph node metastases (IVIS relative intensity) (FaDu cells; [2]): almost complete inhibition
- mice in which metastasis into lymph nodes was prevented (FaDu cells; antibody in combination with cisplatin, eight tested mice): five of the eight
- mice in which metastasis into lymph nodes was prevented (FaDu cells; single agent, eight tested mice per group): one of the eight
- effect on primary tumor (IVIS imaging and H&E staining) (FaDu cells; single agent, antibody 1 mg/kg i.p. daily, cisplatin 2 mg/kg twice weekly): did not have a statistically significant effect
- decrease in total number of metastases relative to vehicle (OVCAR-3 cells; ONA-0-v1 3 mg/kg i.p. daily, 1G04 10 mg/kg i.p. TIW): approximately 45%
- mice free of metastasis in the liver (OVCAR-3 cells; macroscopic analysis): 78%
- mice having 1-2 mm metastasis in the liver (OVCAR-3 cells; macroscopic analysis): 17%
- mice having 1-2 mm metastasis in the peritoneal wall (OVCAR-3 cells; macroscopic analysis): 19%
- mice having 2-5 mm metastasis in the liver (OVCAR-3 cells; macroscopic analysis): 6%
- mice having 2-5 mm metastasis in the peritoneal wall (OVCAR-3 cells; macroscopic analysis): 19%
- mice having <1 mm metastasis in the liver (OVCAR-3 cells; macroscopic analysis): none
- mice having >5 mm metastasis in the peritoneal wall (OVCAR-3 cells; macroscopic analysis): 19%
- mice metastasis-free in the peritoneal wall (OVCAR-3 cells; macroscopic analysis): 44%
- animals free of metastases in the lung (OVCAR-3 cells; microscopic analysis): 44%
- mean metastasis number in the lungs per mouse (OVCAR-3 cells; microscopic analysis): 1.6
- weight of mice throughout the treatment period (OVCAR-3 cells; mouse, in vivo): remained the same
- total number of metastases counted (OVCAR-3 cells; visual inspection of organs, sum per group): 29
- in vivo total tumor bioluminescence over time (HCT-116 cells; 3 mg/kg i.p. daily, day 21): reduced the growth of the tumor
- ex vivo luminescence, kidney (HCT-116 cells; IVIS at sacrifice): 1.08*10^6
- ex vivo luminescence, liver (HCT-116 cells; IVIS at sacrifice): 9.02*10^7
- ex vivo luminescence, lung (HCT-116 cells; IVIS at sacrifice): 1.24*10^6
- ex vivo luminescence, spleen (HCT-116 cells; IVIS at sacrifice): 1.79*10^8
- body weight as percent of starting body weight (HCT-116 cells; day 18): 91.1%
- ex vivo primary tumor bioluminescence, average radiance (HCT-116 cells; day 25): 1.51*10^10
- percentage of mice with tumors in their liver (HCT-116 cells; ex vivo luminescence): 60%
- percentage of mice with tumors in their lungs (HCT-116 cells; ex vivo luminescence): 60%
